# Reference: patent US20260001928A1 (CORTERIA PHARMACEUTICALS, priority 2022, published 2026)
# *1 amine or outer side, *2 acyl side, *3 side chain or, on linkers, in order; H or OH if unused. Where no end group is shown, it is not given here. Side-chain parts run from the residue outwards. [ ]: non-standard residue; d: D form. The star is where a group is joined. C20 diacid = O=C(O)CCCCCCCCCCCCCCCCCCC(=O)*; C16 diacid = O=C(O)CCCCCCCCCCCCCCC(=O)*; γGlu = O=C(O)[C@H](CCC(=O)[*:2])N[*:1]; NMeI = CC[C@H](C)[C@H](NC)C(=O)O; Pentanoyl = CCCCC(=O)*; AEEA = NCCOCCOCC(=O)O; Aib = CC(C)(N)C(=O)O
# B1: SEQ ID NO 231 (peptide)
# peptide: Ac-IVLSLD[dV]PIKLK([AEEA-γGlu-C20 diacid])KILLEQEKQKEQREQAETN[Aib]QILAQV-NH2
# SMILES: CC[C@H](C)[C@H](NC(C)=O)C(=O)N[C@H](C(=O)N[C@@H](CC(C)C)C(=O)N[C@@H](CO)C(=O)N[C@@H](CC(C)C)C(=O)N[C@@H](CC(=O)O)C(=O)N[C@@H](C(=O)N1CCC[C@H]1C(=O)N[C@H](C(=O)N[C@@H](CCCCN)C(=O)N[C@@H](CC(C)C)C(=O)N[C@@H](CCCCNC(=O)COCCOCCNC(=O)CC[C@H](NC(=O)CCCCCCCCCCCCCCCCCCC(=O)O)C(=O)O)C(=O)N[C@@H](CCCCN)C(=O)N[C@H](C(=O)N[C@@H](CC(C)C)C(=O)N[C@@H](CC(C)C)C(=O)N[C@@H](CCC(=O)O)C(=O)N[C@@H](CCC(N)=O)C(=O)N[C@@H](CCC(=O)O)C(=O)N[C@@H](CCCCN)C(=O)N[C@@H](CCC(N)=O)C(=O)N[C@@H](CCCCN)C(=O)N[C@@H](CCC(=O)O)C(=O)N[C@@H](CCC(N)=O)C(=O)N[C@@H](CCCNC(=N)N)C(=O)N[C@@H](CCC(=O)O)C(=O)N[C@@H](CCC(N)=O)C(=O)N[C@@H](C)C(=O)N[C@@H](CCC(=O)O)C(=O)N[C@H](C(=O)N[C@@H](CC(N)=O)C(=O)NC(C)(C)C(=O)N[C@@H](CCC(N)=O)C(=O)N[C@H](C(=O)N[C@@H](CC(C)C)C(=O)N[C@@H](C)C(=O)N[C@@H](CCC(N)=O)C(=O)N[C@H](C(N)=O)C(C)C)[C@@H](C)CC)[C@@H](C)O)[C@@H](C)CC)[C@@H](C)CC)C(C)C)C(C)C
# B2: SEQ ID NO 232 (peptide)
# peptide: Ac-IVLSLD[dV]PIKLK([AEEA-γGlu-C20 diacid])KILLEQEKQKAQREQAETN[Aib]QILAQV-NH2
# SMILES: CC[C@H](C)[C@H](NC(C)=O)C(=O)N[C@H](C(=O)N[C@@H](CC(C)C)C(=O)N[C@@H](CO)C(=O)N[C@@H](CC(C)C)C(=O)N[C@@H](CC(=O)O)C(=O)N[C@@H](C(=O)N1CCC[C@H]1C(=O)N[C@H](C(=O)N[C@@H](CCCCN)C(=O)N[C@@H](CC(C)C)C(=O)N[C@@H](CCCCNC(=O)COCCOCCNC(=O)CC[C@H](NC(=O)CCCCCCCCCCCCCCCCCCC(=O)O)C(=O)O)C(=O)N[C@@H](CCCCN)C(=O)N[C@H](C(=O)N[C@@H](CC(C)C)C(=O)N[C@@H](CC(C)C)C(=O)N[C@@H](CCC(=O)O)C(=O)N[C@@H](CCC(N)=O)C(=O)N[C@@H](CCC(=O)O)C(=O)N[C@@H](CCCCN)C(=O)N[C@@H](CCC(N)=O)C(=O)N[C@@H](CCCCN)C(=O)N[C@@H](C)C(=O)N[C@@H](CCC(N)=O)C(=O)N[C@@H](CCCNC(=N)N)C(=O)N[C@@H](CCC(=O)O)C(=O)N[C@@H](CCC(N)=O)C(=O)N[C@@H](C)C(=O)N[C@@H](CCC(=O)O)C(=O)N[C@H](C(=O)N[C@@H](CC(N)=O)C(=O)NC(C)(C)C(=O)N[C@@H](CCC(N)=O)C(=O)N[C@H](C(=O)N[C@@H](CC(C)C)C(=O)N[C@@H](C)C(=O)N[C@@H](CCC(N)=O)C(=O)N[C@H](C(N)=O)C(C)C)[C@@H](C)CC)[C@@H](C)O)[C@@H](C)CC)[C@@H](C)CC)C(C)C)C(C)C
# B3: SEQ ID NO 233 (peptide)
# peptide: [NMeI]VLSLD[dV]PIKLK([AEEA-γGlu-C20 diacid])KILLEQEKQKEQREQAETN[Aib]QILAQV-NH2
# modifications: N-terminus assumed
# SMILES: CC[C@H](C)[C@H](NC)C(=O)N[C@H](C(=O)N[C@@H](CC(C)C)C(=O)N[C@@H](CO)C(=O)N[C@@H](CC(C)C)C(=O)N[C@@H](CC(=O)O)C(=O)N[C@@H](C(=O)N1CCC[C@H]1C(=O)N[C@H](C(=O)N[C@@H](CCCCN)C(=O)N[C@@H](CC(C)C)C(=O)N[C@@H](CCCCNC(=O)COCCOCCNC(=O)CC[C@H](NC(=O)CCCCCCCCCCCCCCCCCCC(=O)O)C(=O)O)C(=O)N[C@@H](CCCCN)C(=O)N[C@H](C(=O)N[C@@H](CC(C)C)C(=O)N[C@@H](CC(C)C)C(=O)N[C@@H](CCC(=O)O)C(=O)N[C@@H](CCC(N)=O)C(=O)N[C@@H](CCC(=O)O)C(=O)N[C@@H](CCCCN)C(=O)N[C@@H](CCC(N)=O)C(=O)N[C@@H](CCCCN)C(=O)N[C@@H](CCC(=O)O)C(=O)N[C@@H](CCC(N)=O)C(=O)N[C@@H](CCCNC(=N)N)C(=O)N[C@@H](CCC(=O)O)C(=O)N[C@@H](CCC(N)=O)C(=O)N[C@@H](C)C(=O)N[C@@H](CCC(=O)O)C(=O)N[C@H](C(=O)N[C@@H](CC(N)=O)C(=O)NC(C)(C)C(=O)N[C@@H](CCC(N)=O)C(=O)N[C@H](C(=O)N[C@@H](CC(C)C)C(=O)N[C@@H](C)C(=O)N[C@@H](CCC(N)=O)C(=O)N[C@H](C(N)=O)C(C)C)[C@@H](C)CC)[C@@H](C)O)[C@@H](C)CC)[C@@H](C)CC)C(C)C)C(C)C
# B4: SEQ ID NO 14 (peptide)
# peptide: H-IVLSLD[dV]PIKLK([γGlu-C16 diacid])QILLKQERQKKQREQAEKNTQILEQV-NH2
# SMILES: CC[C@H](C)[C@H](N)C(=O)N[C@H](C(=O)N[C@@H](CC(C)C)C(=O)N[C@@H](CO)C(=O)N[C@@H](CC(C)C)C(=O)N[C@@H](CC(=O)O)C(=O)N[C@@H](C(=O)N1CCC[C@H]1C(=O)N[C@H](C(=O)N[C@@H](CCCCN)C(=O)N[C@@H](CC(C)C)C(=O)N[C@@H](CCCCNC(=O)CC[C@H](NC(=O)CCCCCCCCCCCCCCC(=O)O)C(=O)O)C(=O)N[C@@H](CCC(N)=O)C(=O)N[C@H](C(=O)N[C@@H](CC(C)C)C(=O)N[C@@H](CC(C)C)C(=O)N[C@@H](CCCCN)C(=O)N[C@@H](CCC(N)=O)C(=O)N[C@@H](CCC(=O)O)C(=O)N[C@@H](CCCNC(=N)N)C(=O)N[C@@H](CCC(N)=O)C(=O)N[C@@H](CCCCN)C(=O)N[C@@H](CCCCN)C(=O)N[C@@H](CCC(N)=O)C(=O)N[C@@H](CCCNC(=N)N)C(=O)N[C@@H](CCC(=O)O)C(=O)N[C@@H](CCC(N)=O)C(=O)N[C@@H](C)C(=O)N[C@@H](CCC(=O)O)C(=O)N[C@@H](CCCCN)C(=O)N[C@@H](CC(N)=O)C(=O)N[C@H](C(=O)N[C@@H](CCC(N)=O)C(=O)N[C@H](C(=O)N[C@@H](CC(C)C)C(=O)N[C@@H](CCC(=O)O)C(=O)N[C@@H](CCC(N)=O)C(=O)N[C@H](C(N)=O)C(C)C)[C@@H](C)CC)[C@@H](C)O)[C@@H](C)CC)[C@@H](C)CC)C(C)C)C(C)C
# B5: SEQ ID NO 234 (peptide)
# peptide: [NMeI]VLSLD[dV]PIKLK([AEEA-γGlu-C20 diacid])KILLEQEKQK[Aib]QREQAETN[Aib]QILAQV-NH2
# modifications: N-terminus assumed
# SMILES: CC[C@H](C)[C@H](NC)C(=O)N[C@H](C(=O)N[C@@H](CC(C)C)C(=O)N[C@@H](CO)C(=O)N[C@@H](CC(C)C)C(=O)N[C@@H](CC(=O)O)C(=O)N[C@@H](C(=O)N1CCC[C@H]1C(=O)N[C@H](C(=O)N[C@@H](CCCCN)C(=O)N[C@@H](CC(C)C)C(=O)N[C@@H](CCCCNC(=O)COCCOCCNC(=O)CC[C@H](NC(=O)CCCCCCCCCCCCCCCCCCC(=O)O)C(=O)O)C(=O)N[C@@H](CCCCN)C(=O)N[C@H](C(=O)N[C@@H](CC(C)C)C(=O)N[C@@H](CC(C)C)C(=O)N[C@@H](CCC(=O)O)C(=O)N[C@@H](CCC(N)=O)C(=O)N[C@@H](CCC(=O)O)C(=O)N[C@@H](CCCCN)C(=O)N[C@@H](CCC(N)=O)C(=O)N[C@@H](CCCCN)C(=O)NC(C)(C)C(=O)N[C@@H](CCC(N)=O)C(=O)N[C@@H](CCCNC(=N)N)C(=O)N[C@@H](CCC(=O)O)C(=O)N[C@@H](CCC(N)=O)C(=O)N[C@@H](C)C(=O)N[C@@H](CCC(=O)O)C(=O)N[C@H](C(=O)N[C@@H](CC(N)=O)C(=O)NC(C)(C)C(=O)N[C@@H](CCC(N)=O)C(=O)N[C@H](C(=O)N[C@@H](CC(C)C)C(=O)N[C@@H](C)C(=O)N[C@@H](CCC(N)=O)C(=O)N[C@H](C(N)=O)C(C)C)[C@@H](C)CC)[C@@H](C)O)[C@@H](C)CC)[C@@H](C)CC)C(C)C)C(C)C
# B6: SEQ ID NO 235 (peptide)
# peptide: Pentanoyl-VLSLD[dV]PIKLK([AEEA-γGlu-C20 diacid])KILLEQEKQKKQREQAETN[Aib]QILAQV-NH2
# SMILES: CCCCC(=O)N[C@H](C(=O)N[C@@H](CC(C)C)C(=O)N[C@@H](CO)C(=O)N[C@@H](CC(C)C)C(=O)N[C@@H](CC(=O)O)C(=O)N[C@@H](C(=O)N1CCC[C@H]1C(=O)N[C@H](C(=O)N[C@@H](CCCCN)C(=O)N[C@@H](CC(C)C)C(=O)N[C@@H](CCCCNC(=O)COCCOCCNC(=O)CC[C@H](NC(=O)CCCCCCCCCCCCCCCCCCC(=O)O)C(=O)O)C(=O)N[C@@H](CCCCN)C(=O)N[C@H](C(=O)N[C@@H](CC(C)C)C(=O)N[C@@H](CC(C)C)C(=O)N[C@@H](CCC(=O)O)C(=O)N[C@@H](CCC(N)=O)C(=O)N[C@@H](CCC(=O)O)C(=O)N[C@@H](CCCCN)C(=O)N[C@@H](CCC(N)=O)C(=O)N[C@@H](CCCCN)C(=O)N[C@@H](CCCCN)C(=O)N[C@@H](CCC(N)=O)C(=O)N[C@@H](CCCNC(=N)N)C(=O)N[C@@H](CCC(=O)O)C(=O)N[C@@H](CCC(N)=O)C(=O)N[C@@H](C)C(=O)N[C@@H](CCC(=O)O)C(=O)N[C@H](C(=O)N[C@@H](CC(N)=O)C(=O)NC(C)(C)C(=O)N[C@@H](CCC(N)=O)C(=O)N[C@H](C(=O)N[C@@H](CC(C)C)C(=O)N[C@@H](C)C(=O)N[C@@H](CCC(N)=O)C(=O)N[C@H](C(N)=O)C(C)C)[C@@H](C)CC)[C@@H](C)O)[C@@H](C)CC)[C@@H](C)CC)C(C)C)C(C)C
# Target: human corticotropin-releasing factor 2a (CRF2a receptor) (human), Q13324
# Assay: cell-based or functional assay
# human corticotropin-releasing factor 2a (CRF2a receptor) (human), Q13324, sequence (Q13324 20-411): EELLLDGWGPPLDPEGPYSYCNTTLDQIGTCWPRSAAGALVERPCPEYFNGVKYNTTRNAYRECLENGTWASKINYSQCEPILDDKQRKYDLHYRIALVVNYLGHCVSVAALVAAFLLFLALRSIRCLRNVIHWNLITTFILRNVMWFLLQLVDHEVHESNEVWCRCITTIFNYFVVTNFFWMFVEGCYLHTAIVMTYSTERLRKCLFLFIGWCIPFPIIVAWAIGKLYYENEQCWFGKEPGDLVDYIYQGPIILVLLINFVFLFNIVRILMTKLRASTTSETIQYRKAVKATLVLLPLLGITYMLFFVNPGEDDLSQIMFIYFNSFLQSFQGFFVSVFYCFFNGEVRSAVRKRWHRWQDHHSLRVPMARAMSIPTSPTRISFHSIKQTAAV
row,Binder,EC50 [nM] (cAMP)
1,B1,0.28
2,B2,0.12
3,B3,0.12
4,B4,0.26
5,B5,0.09
6,B6,0.16
